The target in test [1] is Serum samples collected at week 16 from patients immunized with UBI AD vaccine (UB-311). Briefly: comp. ELISA, serum P101. On the technique in general: In an ELISA, binding on a coated surface is turned into a signal by an enzyme label.
Test [2] shares this target. Briefly: comp. ELISA, serum P102.
Test [3] has the same target. The test can be described thus: comp. ELISA, serum P103.
For test [4] the target is unchanged. The test can be described thus: comp. ELISA, serum P104.
Test [5] shares this target. The test can be described thus: comp. ELISA, serum P105.
Test [6] shares this target. The test can be described thus: comp. ELISA, serum P106.
Test [7] has the same target. The test can be described thus: comp. ELISA, serum P107.
The target is the same in test [8]. Briefly: comp. ELISA, serum P108.
The target is the same in test [9]. The test can be described thus: comp. ELISA, serum P109.
Test [10] shares this target. Briefly: comp. ELISA, serum P201.
For test [11] the target is unchanged. Briefly: comp. ELISA, serum P202.
The target is the same in test [12]. The test can be described thus: comp. ELISA, serum P203.
The target is the same in test [13]. The test can be described thus: comp. ELISA, serum P204.
Test [14] has the same target. The test can be described thus: comp. ELISA, serum P205.
Test [15] has the same target. Briefly: comp. ELISA, serum P206.
For test [16] the target is unchanged. The test can be described thus: comp. ELISA, serum P207.
For test [17] the target is unchanged. The test can be described thus: comp. ELISA, serum P208.
Test [18] has the same target. Briefly: comp. ELISA, serum P209.
Test [19] has the same target. The test can be described thus: comp. ELISA, serum P210.

From patent US20190194280A1 come the findings set out here.

B1: Aβ7-16 or APP 770 (D678-K687) (peptide)
peptide: DSGYEVHHQK
On to B1, for which the IC50-based peak height in test [1] was determined as 214; in test [2] it was 0; in test [3], 0; in test [4] it was 0; in [5] it was 0; in test [6], 0. Also, the IC50-based peak height in test [7], in test [8], in test [9], in test [10], in test [11] and in test [12] was 0 in each case. Further, the IC50-based peak height in test [13], in test [14], in [15], in test [16], in test [17] and in test [18] was 0 throughout. For the same molecule, in test [19], the IC50-based peak height was determined as 0.

B2: Aβ8-17 or APP 770 (S679-L688) (peptide)
peptide: SGYEVHHQKL
With B2, the IC50-based peak height in test [1], in test [2], in [3], in [4], in [5] and in test [6] was 0 in each case. Further, the IC50-based peak height in test [7], in test [8], in test [9], in [10], in test [11] and in test [12] was 0 throughout. Moreover, the IC50-based peak height in test [13], in test [14], in test [15], in test [16], in [17] and in test [18] was 0 throughout. Also, the IC50-based peak height in test [19] came out at 0.

B3: Aβ9-18 or APP 770 (G680-V689) (peptide)
peptide: GYEVHHQKLV
B3: the IC50-based peak height in [1], in test [2], in [3], in [4], in test [5] and in test [6] was 0 throughout. Further, the IC50-based peak height in test [7], in test [8], in [9], in test [10], in test [11] and in [12] was 0 in each case. Also, the IC50-based peak height amounted to 0 in [13]; 0 in test [14]; 0 in [15]; 16 in test [16]; 0 in [17]; 0 in test [18]. In [19], this molecule showed an IC50-based peak height of 0.

B4: Aβ6-15 or APP 770 (H677-Q686) (peptide)
peptide: HDSGYEVHHQ
Turning to B4, the IC50-based peak height in test [1], in test [2], in test [3], in test [4], in test [5] and in test [6] was 0 each time. The IC50-based peak height in test [7], in [8], in test [9], in [10], in [11] and in test [12] was 0 throughout. Further, the IC50-based peak height in test [13], in test [14], in test [15], in test [16], in test [17] and in [18] was 0 in each case. The molecule further returned an IC50-based peak height in test [19] of 0.
